From paper doi:10.1101/2021.10.29.464531

Biological target: tick-borne encephalitis virus capsid protein (tick-borne encephalitis virus, strain Kuutsalo-14)
Test: cross-linking

tick-borne encephalitis virus capsid protein (natural protein)
stoichiometry N: 2
